From article PMC5566498, “SIRT7 antagonizes TGF-β signaling and inhibits breast cancer metastasis” (Nature Communications, 2017)

Biological target: T1, 6× His-tagged SMAD4 (UniProt Q13485 1-552)
T1 construct: SMAD4; also called 6× His-SMAD4; source: purified from bacterial culture
T1 sequence (looked up): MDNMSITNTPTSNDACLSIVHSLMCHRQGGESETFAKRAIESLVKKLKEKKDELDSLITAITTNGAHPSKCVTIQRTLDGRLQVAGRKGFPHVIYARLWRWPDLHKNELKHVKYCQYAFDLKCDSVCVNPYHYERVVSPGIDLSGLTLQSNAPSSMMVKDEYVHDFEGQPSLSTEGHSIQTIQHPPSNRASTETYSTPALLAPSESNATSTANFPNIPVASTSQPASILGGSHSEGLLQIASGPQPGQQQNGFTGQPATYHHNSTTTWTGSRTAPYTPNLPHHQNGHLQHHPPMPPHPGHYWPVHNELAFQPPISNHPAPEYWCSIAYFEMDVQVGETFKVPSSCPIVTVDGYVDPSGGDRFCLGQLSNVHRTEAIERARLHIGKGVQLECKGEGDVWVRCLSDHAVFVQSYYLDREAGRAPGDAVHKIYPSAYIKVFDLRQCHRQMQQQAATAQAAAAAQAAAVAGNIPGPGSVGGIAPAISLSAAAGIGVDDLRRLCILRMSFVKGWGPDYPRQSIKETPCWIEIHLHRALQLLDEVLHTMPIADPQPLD
Test: pull-down; 1 µg GST-SIRT7 on Glutathione-Sepharose 4B, incubated with 6× His-SMAD4 for 2 h at 4 °C in 120 mM KCl, 20 mM Tris-HCl pH 7.9, 5 mM MgCl2, 0.2 mM EDTA, 10% glycerol, 0.2% NP-40; immunoblot
Settings: both partners purified

- binding result: binds
B1: GST-SIRT7 (enzyme, UniProt Q9NRC8 1-400, looked up)
chain: MAAGGLSRSERKAAERVRRLREEQQRERLRQVSRILRKAAAERSAEEGRLLAESADLVTELQGRSRRREGLKRRQEEVCDDPEELRGKVRELASAVRNAKYLVVYTGAGISTAASIPDYRGPNGVWTLLQKGRSVSAADLSEAEPTLTHMSITRLHEQKLVQHVVSQNCDGLHLRSGLPRTAISELHGNMYIEVCTSCVPNREYVRVFDVTERTALHRHQTGRTCHKCGTQLRDTIVHFGERGTLGQPLNWEAATEAASRADTILCLGSSLKVLKKYPRLWCMTKPPSRRPKLYIVNLQWTPKDDWAALKLHGKCDDVMRLLMAELGLEIPAYSRWQDPIFSLATPLRAGEEGSHSRKSLCRSREEAPPGDRGAPLSSAPILGGWFGRGCTKRTKRKKVT
notes: SIRT7; also called purified GST-SIRT7; recombinant GST-SIRT7; source: recombinant, purified
